Source: US20240052042A1 (Novartis, published 2024)
Each block holds one binder with its values, some of them ahead of it.

Columns and labels:
[1] = target: T1, human Natriuretic Peptide Receptor 1 (hNPR1) (human, UniProt P16066 33-473, limits assumed); assay: ELISA, IgG titrated on coated antigen, fluorescence [Cont.]
T1 construct: pannings used NPR1-hFc; also called NPR1-hFc
T1 sequence: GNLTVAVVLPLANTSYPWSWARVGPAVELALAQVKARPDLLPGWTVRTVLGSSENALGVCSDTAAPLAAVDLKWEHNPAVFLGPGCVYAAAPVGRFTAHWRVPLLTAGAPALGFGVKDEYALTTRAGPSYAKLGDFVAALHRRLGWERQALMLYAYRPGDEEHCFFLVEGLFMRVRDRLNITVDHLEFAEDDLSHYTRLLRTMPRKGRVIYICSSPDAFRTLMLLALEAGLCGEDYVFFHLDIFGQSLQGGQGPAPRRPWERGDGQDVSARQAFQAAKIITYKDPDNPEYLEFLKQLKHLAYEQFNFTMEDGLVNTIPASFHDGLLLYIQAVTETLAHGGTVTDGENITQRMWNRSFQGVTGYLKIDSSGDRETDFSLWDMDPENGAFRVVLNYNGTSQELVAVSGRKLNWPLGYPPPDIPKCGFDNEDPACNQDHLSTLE

[2] = target: W74R hNPR1 mutant in the presence of ANP (human) (UniProt P01160); assay: ELISA, IgG titrated on coated antigen with ANP (250 fold molar excess), fluorescence [Cont.]
[3] = target: T1, human Natriuretic Peptide Receptor 1 …; assay: FRET ANP competition assay: IgG titrated on NPR1, Eu-labeled donor, Cy5-labeled ANP as the competed ligand [Cont.]
Procedure: The same 31 IgGs were tested for ANP competition using a Fluorescence Resonance Energy Transfer (FRET)-based assay in which the NPR1-specific antibodies competed with ANP for binding to NPR1. In this FRET based assay (see FIG. 3), Eu-labeled Streptavidin (for measurement of IgGs) or Eu-labeled anti-hFc antibody (for measurement of FabCys) was used as an energy donor, while Cy5-labeled ANP was used as an acceptor (for all measurements). The resulting fluorescent signal was decreased by ANP-competitive antibodies. The assay was performed as follows: antibodies were mixed with NPR1 and incubated for 5 minutes at room temperature. After addition of the Eu-labeled donor and incubation for 30 minutes at room temperature, the Cy5-ANP solution was added. After a further 60-minute incubation, readout was performed using a TECAN Infinite M1000 Pro using an excitation wavelength of 317 nm and an emission wavelength of 665 nm. Percentage of ANP competition was calculated according to the following formulae: […]
All 92 FabCys and 24 IgGs were tested for binding to relevant antigens via ELISA and relevant cell lines by flow cytometry. […] Eight functional candidates were identified and analyzed for specificity in the Protein Panel Profiling assay (3P assay) in IgG format. For comparison, one of the functional candidates from the initial campaign (WW03) was analyzed. […]

hNPR1-ANP complex = target: T2, hNPR1-ANP complex (human, UniProt P01160 124-151, limits assumed); assay: ELISA, IgG titrated on coated antigen with ANP (250 fold molar excess), fluorescence [Cont.]
T2 construct: hNPR1 antigen in the presence of ANP; also called hNPR1 + 100 nM ANP
T2 sequence: T1 sequence
T2 sequence (peptide): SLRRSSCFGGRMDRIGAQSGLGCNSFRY

[4] = target: T3, human NPR3 in the presence of ANP (human, UniProt P17342 27-481; P01160 124-151, limits assumed); assay: as above
T3 construct: also called hNPR3 + 100 nM ANP
T3 sequence (looked up): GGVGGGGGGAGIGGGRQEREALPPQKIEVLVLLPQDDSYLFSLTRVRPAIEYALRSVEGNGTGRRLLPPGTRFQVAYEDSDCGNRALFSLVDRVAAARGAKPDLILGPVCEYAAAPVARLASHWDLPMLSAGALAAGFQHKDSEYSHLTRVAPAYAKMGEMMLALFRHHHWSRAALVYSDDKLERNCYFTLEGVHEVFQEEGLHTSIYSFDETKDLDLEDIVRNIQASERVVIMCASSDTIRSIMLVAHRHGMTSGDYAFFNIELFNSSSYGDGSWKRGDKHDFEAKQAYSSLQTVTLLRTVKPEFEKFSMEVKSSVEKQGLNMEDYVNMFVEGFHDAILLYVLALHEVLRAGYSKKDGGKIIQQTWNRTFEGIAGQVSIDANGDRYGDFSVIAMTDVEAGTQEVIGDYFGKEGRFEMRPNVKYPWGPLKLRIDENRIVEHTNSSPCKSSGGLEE
T3 sequence (peptide, looked up): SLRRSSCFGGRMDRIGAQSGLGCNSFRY

rNPR1-ANP complex = target: T4, rNPR1-ANP complex (rat, UniProt P01160 124-151 (human entry), limits assumed); assay: as above
T4 construct: rNPR1 antigen in the presence of ANP; also called rNPR1 + 100 nM ANP
T4 sequence: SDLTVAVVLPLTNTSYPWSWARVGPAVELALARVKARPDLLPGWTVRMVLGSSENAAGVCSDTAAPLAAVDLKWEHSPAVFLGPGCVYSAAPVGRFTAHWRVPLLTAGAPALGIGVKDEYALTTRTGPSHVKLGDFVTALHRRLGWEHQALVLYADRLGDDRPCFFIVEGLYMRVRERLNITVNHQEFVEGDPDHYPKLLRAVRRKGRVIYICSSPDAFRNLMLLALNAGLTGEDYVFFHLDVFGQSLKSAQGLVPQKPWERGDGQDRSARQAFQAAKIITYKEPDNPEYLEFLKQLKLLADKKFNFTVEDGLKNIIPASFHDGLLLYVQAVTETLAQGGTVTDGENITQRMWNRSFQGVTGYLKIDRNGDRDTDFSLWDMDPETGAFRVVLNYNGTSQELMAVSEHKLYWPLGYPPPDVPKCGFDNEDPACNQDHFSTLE
T4 sequence (peptide): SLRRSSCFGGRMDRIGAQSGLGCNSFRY

EC50 (read off the curve) [1]: ~7 nM
EC50 (read off the curve) [2]: 20 nM
IC50 (read off the curve) [3]: ~4 nM
EC50 (read off the curve) (hNPR1-ANP complex): ~7 nM
B1: YY06 (IgG format) (antibody, V domains shown)
VH: EVQLLESGGGLVQPGGSLRLSCAASGFTFSSYAISWVRQAPGKGLEWVSAISGSGGSTYYAESVKGRFTISRDNSKNTLYLQMNSLRAEDTAVYYCARPYLGDRRSYGFDHWGQGTLVTVSS
VL: QSALTQPASVSGSPGQSITISCTGTSSDVGSYNLVSWYQQHPGKAPKLMIYEGSKRPSGVSNRFSGSKSGNTASLTISGLQAEDEADYYCSSYGFHIVVVVFGGGTKLTVLG
notes: also called YY06_LALA

binding result [4]: no binding (tested: 1000 nM)
binding result (rNPR1-ANP complex): no binding (tested: 1000 nM)
B2: YY07 (IgG format) (antibody, V domains shown)
VH: EVQLVQSGAEVKKPGESLKISCKGSGYSFTSYWISWVRQMPGKGLEWMGIIYPGTSYTRYSPSFQGQVTISADKSISTAYLQWSSLKASDTAMYYCARGSLPGLLGFDHWGQGTLVTVSS
VL: QSVLTQPPSVSGAPGQRVTISCTGSSSNIGAGYDVHWYQQLPGTAPKLLIYGNSNRPNGVPDRFSGSKSGTSASLAITGLQAEDEADYYCQSYDSPTSSSVFGGGTKLTVLG
notes: also called YY07_LALA
